Measurements published in IntAct's records for PubMed 17641689.

B1: Retinoic acid receptor alpha (Homo sapiens), P10276 (parent)
chain: MASNSSSCPTPGGGHLNGYPVPPYAFFFPPMLGGLSPPGALTTLQHQLPVSGYSTPSPATIETQSSSSEEIVPSPPSPPPLPRIYKPCFVCQDKSSGYHYGVSACEGCKGFFRRSIQKNMVYTCHRDKNCIINKVTRNRCQYCRLQKCFEVGMSKESVRNDRNKKKKEVPKPECSESYTLTPEVGELIEKVRKAHQETFPALCQLGKYTTNNSSEQRVSLDIDLWDKFSELSTKCIIKTVEFAKQLPGFTTLTIADQITLLKAACLDILILRICTRYTPEQDTMTFSDGLTLNRTQMHNAGFGPLTDLVFAFANQLLPLEMDDAETGLLSAICLICGDRQDLEQPDRVDMLQEPLLEALKVYVRKRRPSRPHMFPKMLMKITDLRSISAKGAERVITLKMEIPGSMPPLIQEMLENSEGLDTLSGQPGGGGRDGGGLAPPPGSCSPSLSPSSNRSSPATHSP
partner: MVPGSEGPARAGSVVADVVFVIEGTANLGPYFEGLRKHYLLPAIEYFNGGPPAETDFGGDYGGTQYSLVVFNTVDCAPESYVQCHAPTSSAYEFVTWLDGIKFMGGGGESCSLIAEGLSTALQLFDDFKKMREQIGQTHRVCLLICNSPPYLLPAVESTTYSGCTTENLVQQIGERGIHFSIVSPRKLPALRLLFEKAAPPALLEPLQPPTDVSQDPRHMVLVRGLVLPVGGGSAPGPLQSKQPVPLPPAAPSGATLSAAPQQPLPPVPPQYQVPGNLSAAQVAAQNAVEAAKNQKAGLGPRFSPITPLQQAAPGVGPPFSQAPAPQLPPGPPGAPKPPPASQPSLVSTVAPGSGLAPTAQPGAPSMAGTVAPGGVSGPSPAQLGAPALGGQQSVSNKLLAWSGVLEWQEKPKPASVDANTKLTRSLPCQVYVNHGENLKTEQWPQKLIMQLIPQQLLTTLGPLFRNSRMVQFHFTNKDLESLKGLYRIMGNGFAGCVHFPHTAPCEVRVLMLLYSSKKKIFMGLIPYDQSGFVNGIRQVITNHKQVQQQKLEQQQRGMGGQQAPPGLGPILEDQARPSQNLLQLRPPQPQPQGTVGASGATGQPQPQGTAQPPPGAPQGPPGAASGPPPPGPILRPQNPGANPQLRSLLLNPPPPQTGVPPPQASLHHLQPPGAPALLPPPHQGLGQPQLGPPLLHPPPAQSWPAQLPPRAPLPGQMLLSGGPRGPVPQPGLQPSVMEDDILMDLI
B2: Retinoic acid receptor RXR-alpha (Mus musculus), P28700 (parent)
chain: MDTKHFLPLDFSTQVNSSSLNSPTGRGSMAVPSLHPSLGPGIGSPLGSPGQLHSPISTLSSPINGMGPPFSVISSPMGPHSMSVPTTPTLGFGTGSPQLNSPMNPVSSTEDIKPPLGLNGVLKVPAHPSGNMASFTKHICAICGDRSSGKHYGVYSCEGCKGFFKRTVRKDLTYTCRDNKDCLIDKRQRNRCQYCRYQKCLAMGMKREAVQEERQRGKDRNENEVESTSSANEDMPVEKILEAELAVEPKTETYVEANMGLNPSSPNDPVTNICQAADKQLFTLVEWAKRIPHFSELPLDDQVILLRAGWNELLIASFSHRSIAVKDGILLATGLHVHRNSAHSAGVGAIFDRVLTELVSKMRDMQMDKTELGCLRAIVLFNPDSKGLSNPAEVEALREKVYASLEAYCKHKYPEQPGRFAKLLLRLPALRSIGLKCLEHLFFFKLIGDTPIDTFLMEMLEAPHQAT
partner: B1 partner

Variants of: B1
Details: with med25_human MED25, Q71SY5

effect of a mutation on the interaction	Variant
disrupting interaction	L409A
disrupting interaction	I410A

Variants of: B1
Details: with med25_human MED25, Q71SY5
Remark: another data set of the same source

effect of a mutation on the interaction	Variant
disrupting interaction	E412Q
disrupting interaction	E415Q

Variants of: B1
Details: with med25_human MED25, Q71SY5
Remark: another data set of the same source

effect of a mutation on the interaction	Variant
disrupting interaction	L414A
disrupting interaction	M413A

Variants of: B2
Details: with med25_human MED25, Q71SY5

effect of a mutation on the interaction	Variant
decreasing interaction	E461Q

Variants of: B2
Details: with med25_human MED25, Q71SY5
Remark: another data set of the same source

effect of a mutation on the interaction	Variant
disrupting interaction	L460A
disrupting interaction	M459A

Variants of: B2
Details: with med25_human MED25, Q71SY5
Remark: another data set of the same source

effect of a mutation on the interaction	Variant
disrupting interaction	F455A
